Source: IntAct's records for PubMed 18488041

B1: Proto-oncogene vav (Mus musculus), P27870 (parent)
chain: MELWRQCTHWLIQCRVLPPSHRVTWEGAQVCELAQALRDGVLLCQLLNNLLPQAINLREVNLRPQMSQFLCLKNIRTFLSTCCEKFGLKRSELFEAFDLFDVQDFGKVIYTLSALSWTPIAQNKGIMPFPTEDSALNDEDIYSGLSDQIDDTAEEDEDLYDCVENEEAEGDEIYEDLMRLESVPTPPKMTEYDKRCCCLREIQQTEEKYTDTLGSIQQHFMKPLQRFLKPQDMETIFVNIEELFSVHTHFLKELKDALAGPGATTLYQVFIKYKERFLVYGRYCSQVESASKHLDQVATAREDVQMKLEECSQRANNGRFTLRDLLMVPMQRVLKYHLLLQELVKHTQDATEKENLRLALDAMRDLAQCVNEVKRDNETLRQITNFQLSIENLDQSLANYGRPKIDGELKITSVERRSKTDRYAFLLDKALLICKRRGDSYDLKASVNLHSFQVRDDSSGERDNKKWSHMFLLIEDQGAQGYELFFKTRELKKKWMEQFEMAISNIYPENATANGHDFQMFSFEETTSCKACQMLLRGTFYQGYRCYRCRAPAHKECLGRVPPCGRHGQDFAGTMKKDKLHRRAQDKKRNELGLPKMEVFQEYYGIPPPPGAFGPFLRLNPGDIVELTKAEAEHNWWEGRNTATNEVGWFPCNRVHPYVHGPPQDLSVHLWYAGPMERAGAEGILTNRSDGTYLVRQRVKDTAEFAISIKYNVEVKHIKIMTSEGLYRITEKKAFRGLLELVEFYQQNSLKDCFKSLDTTLQFPYKEPERRAISKPPAGSTKYFGTAKARYDFCARDRSELSLKEGDIIKILNKKGQQGWWRGEIYGRIGWFPSNYVEEDYSEYC

Variants of: B1
Conditions: with RAC1, P63000-1

Row | Variant | effect of a mutation on the interaction
1 | Y174F | increasing interaction
2 | K208A | increasing interaction
